Laboratory results reported in patent publication US20110293618A1 (MEDICAL AND BIOLOGICAL LABORATORIES, published 2011).
Substitutions are numbered along the chain they refer to. Blank lines part the entries; values can stand above or below the binder they belong to.

Legend:
[1] = molecular target: T1, purified protein of the whole extracellular domain of human CLCP1 (amino acid positions 1 to 526), myc-His … (human, UniProt Q96PD2 67-526); assay: ELISA on purified extracellular domain protein, culture supernatants
T1 construct: also called whole extracellular domain protein; complete extracellular domain protein; not shown: myc-His tag
T1 sequence: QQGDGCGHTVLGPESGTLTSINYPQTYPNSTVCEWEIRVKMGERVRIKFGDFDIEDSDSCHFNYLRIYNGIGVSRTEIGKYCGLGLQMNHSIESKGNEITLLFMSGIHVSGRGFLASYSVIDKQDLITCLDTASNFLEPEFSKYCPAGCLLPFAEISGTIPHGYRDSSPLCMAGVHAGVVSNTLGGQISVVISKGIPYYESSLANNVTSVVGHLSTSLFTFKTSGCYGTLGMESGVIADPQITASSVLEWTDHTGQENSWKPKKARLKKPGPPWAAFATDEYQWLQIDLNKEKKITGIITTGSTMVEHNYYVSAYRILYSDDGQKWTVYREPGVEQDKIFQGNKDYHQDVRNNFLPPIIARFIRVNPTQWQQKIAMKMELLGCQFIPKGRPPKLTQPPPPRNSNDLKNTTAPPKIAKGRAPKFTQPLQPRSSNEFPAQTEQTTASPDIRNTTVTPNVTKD
Description: Using the culture supernatants whose IgG concentrations had been determined, the activities of the chimeric antibody, humanized antibody, and serine-substituted humanized antibody were assessed and compared by ELISA for the purified protein of the extracellular domain of CLCP1 described in Example 21. […] Thus, humanized FA19-1 was successfully designed (FIGS. 42 and 43).

[2] = molecular target: T2, E. coli-produced recombinant protein corresponding to aa 195-aa 461 in SEQ ID NO: 2 (human, UniProt Q96PD2 195-461); assay: ELISA on purified E. coli fragment
T2 construct: pET28a expression system; vector-encoded tag residues not described
T2 sequence: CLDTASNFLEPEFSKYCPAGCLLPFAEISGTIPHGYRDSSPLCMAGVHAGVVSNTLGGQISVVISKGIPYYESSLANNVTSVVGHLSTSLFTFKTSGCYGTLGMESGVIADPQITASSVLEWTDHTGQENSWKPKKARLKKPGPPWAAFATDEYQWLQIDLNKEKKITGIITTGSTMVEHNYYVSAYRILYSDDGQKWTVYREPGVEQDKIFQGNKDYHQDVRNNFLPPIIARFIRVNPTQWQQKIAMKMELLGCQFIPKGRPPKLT
Description: (§1) Each antibody was assayed by ELISA using the purified proteins prepared described above.

[3] = molecular target: T3, E. coli-produced recombinant protein corresponding to aa 195-aa 453 in SEQ ID NO: 2 (human, UniProt Q96PD2 195-453); assay: ELISA on purified E. coli fragment
T3 construct: pET28a, BL21, urea-solubilised, TALON-purified; vector-encoded tag residues not described
T3 sequence: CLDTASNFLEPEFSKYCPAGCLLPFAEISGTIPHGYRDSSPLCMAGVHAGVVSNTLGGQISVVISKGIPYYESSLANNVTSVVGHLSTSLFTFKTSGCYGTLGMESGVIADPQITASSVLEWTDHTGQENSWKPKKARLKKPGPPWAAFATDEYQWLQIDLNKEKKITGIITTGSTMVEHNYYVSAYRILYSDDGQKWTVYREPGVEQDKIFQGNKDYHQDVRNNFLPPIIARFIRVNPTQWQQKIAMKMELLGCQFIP
Description: as §1

[4] = molecular target: T4, purified partial protein containing the FA58C domain of human CLCP1 (amino acid positions 284 to 526), … (human, UniProt Q96PD2 284-526); assay: ELISA, hybridoma screening on immunogen-coated plate
T4 construct: also called partial protein containing FA58C domain; region containing FA58C; not shown: myc-His tag
T4 sequence: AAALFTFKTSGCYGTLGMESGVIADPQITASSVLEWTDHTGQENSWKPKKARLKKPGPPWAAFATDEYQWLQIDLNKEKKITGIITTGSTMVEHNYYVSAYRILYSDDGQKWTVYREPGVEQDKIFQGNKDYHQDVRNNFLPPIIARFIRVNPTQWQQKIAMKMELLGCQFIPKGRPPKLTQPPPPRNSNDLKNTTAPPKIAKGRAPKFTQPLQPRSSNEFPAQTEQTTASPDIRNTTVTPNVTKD
Description: After expansion culture in HT medium [RPMI1640, HT-supplement (Invitrogen; 21060-017), Penicillin, and Streptomycin] supplemented with 15% FBS, the cells were cloned into single clones by the limiting dilution method. Eleven hybridoma clones producing anti-human CLCP1 antibody were obtained by the method described above.

[5] = molecular target: T5, human CLCP1 (CUB, LCCL-homology, coagulation factor V/VIII homology domains protein), full length, on cells (human, UniProt Q96PD2 67-775); assay: flow cytometry on H460-LNM35 cells, antibody 5 ug/ml, PE anti-mouse IgG
T5 construct: also called ESDN; DCBLD2
T5 sequence: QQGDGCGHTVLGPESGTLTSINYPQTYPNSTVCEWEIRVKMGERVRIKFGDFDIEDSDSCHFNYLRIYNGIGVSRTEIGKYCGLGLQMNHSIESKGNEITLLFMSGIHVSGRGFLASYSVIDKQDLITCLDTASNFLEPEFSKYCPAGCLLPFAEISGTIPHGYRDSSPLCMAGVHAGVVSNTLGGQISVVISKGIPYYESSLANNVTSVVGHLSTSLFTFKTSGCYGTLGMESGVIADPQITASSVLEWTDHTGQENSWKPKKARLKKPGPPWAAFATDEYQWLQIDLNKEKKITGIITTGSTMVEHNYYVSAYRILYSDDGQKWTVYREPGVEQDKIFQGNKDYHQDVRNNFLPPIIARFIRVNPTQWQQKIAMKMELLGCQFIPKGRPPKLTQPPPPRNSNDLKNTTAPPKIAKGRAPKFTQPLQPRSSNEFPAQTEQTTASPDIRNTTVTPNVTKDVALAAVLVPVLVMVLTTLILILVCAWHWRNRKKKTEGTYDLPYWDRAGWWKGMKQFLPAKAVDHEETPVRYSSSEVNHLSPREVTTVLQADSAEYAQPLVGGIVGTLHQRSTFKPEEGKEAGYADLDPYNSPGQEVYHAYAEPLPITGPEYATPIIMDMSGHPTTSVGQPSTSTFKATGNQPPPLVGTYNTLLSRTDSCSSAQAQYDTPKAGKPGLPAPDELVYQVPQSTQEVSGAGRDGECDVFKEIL
Description: The antibodies prepared as described above were assessed for the reactivity to endogenous human CLCP1 by testing their reactivity to cells of high CLCP1-expressing line H460-LNM35 according to the following method. Anti-human CLCP1 antibody was purified from culture supernatant of each hybridoma clone by a conventional affinity purification method using Protein A-Sepharose. The purified antibodies were each diluted to 5 μg/ml, and the reaction intensity to H460-LNM35 was assessed by flow cytometry. In this assay, the anti-CLCP1 monoclonal antibody bound on the cell surface was detected by using a phycoerythrin-labeled anti-mouse IgG antibody. All samples were processed under the same conditions.

[6] = molecular target: T6, endogenous human CLCP1 in H460-LNM35 cell lysate (human, UniProt Q96PD2 67-775); assay: Western blot of H460-LNM35 lysate; almost no signal in CLCP1-knockdown cells
T6 construct: Same protein as m1 but solubilised: SDS lysate for Western blot (denatured, reduced) or NP-40 lysate for immunoprecipitation; also called endogenous CLCP1
T6 sequence: T5 sequence
Description: As described in the reference, Nagai H, et al., Oncogene 26: 4025-4031 (2007), a subline that constitutively expresses a CLCP1 siRNA as a short hairpin RNA (shRNA) biosynthesized in cells has been established from the high expressing CLCP1 cell line H460-LNM35. […] Western blotting was carried out using siCLCP1-3 #9 cells (CLCP1 Knockdown in FIG. 8) and H460-LNM35 cells.
2×10⁶ cells of the high expressing CLCP1 cell line H460-LNM35 and siCLCP1-3 #9 line were each suspended in lysis buffer [50 mM Tris (pH 6.8), 5% glycerol, 2% SDS], and the protein concentration was determined using the DC Protein Assay Kit (Bio-Rad). Then, 2-mercaptoethanol was added at 5.3% to the lysates. After heating, 20 μg each of the lysates were subjected to SDS-PAGE, followed by Western blotting with each of the antibodies and an HRP-labeled anti-mouse or anti-rabbit antibody. […] Meanwhile, there was almost no detectable signal in siCLCP1-3 #9 cells.

[7] = molecular target: T5, human CLCP1 (CUB, LCCL-homology, …); assay: flow cytometry on NCI-H460-LNM35 cells
[8] = molecular target: T7, E. coli-produced recombinant protein corresponding to aa 195-aa 465 in SEQ ID NO: 2 (human, UniProt Q96PD2 195-465); assay: ELISA on purified E. coli fragment
T7 construct: pET28a expression system; vector-encoded tag residues not described
T7 sequence: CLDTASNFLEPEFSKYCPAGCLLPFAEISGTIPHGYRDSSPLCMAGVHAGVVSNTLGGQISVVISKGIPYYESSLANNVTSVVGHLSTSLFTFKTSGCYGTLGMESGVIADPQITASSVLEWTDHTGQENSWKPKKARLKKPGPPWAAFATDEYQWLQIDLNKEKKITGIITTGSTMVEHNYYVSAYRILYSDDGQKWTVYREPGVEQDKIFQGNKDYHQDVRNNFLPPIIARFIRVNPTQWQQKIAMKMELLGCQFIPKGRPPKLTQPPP
Description: as §1

[9] = molecular target: T8, E. coli-produced recombinant protein corresponding to aa 195-aa 457 in SEQ ID NO: 2 (human, UniProt Q96PD2 195-457); assay: ELISA on purified E. coli fragment
T8 construct: pET28a expression system; vector-encoded tag residues not described
T8 sequence: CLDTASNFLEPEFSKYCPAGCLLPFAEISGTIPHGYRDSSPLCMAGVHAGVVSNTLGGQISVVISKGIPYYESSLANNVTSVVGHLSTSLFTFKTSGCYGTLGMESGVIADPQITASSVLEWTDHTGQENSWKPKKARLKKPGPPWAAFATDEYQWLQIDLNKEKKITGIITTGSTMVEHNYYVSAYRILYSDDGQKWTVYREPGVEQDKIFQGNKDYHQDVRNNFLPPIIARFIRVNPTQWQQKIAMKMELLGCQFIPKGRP
Description: as §1

[10] = molecular target: T5, human CLCP1 (CUB, LCCL-homology, …); assay: cell-based or functional assay

- binding result [1]: binds
B1: serine-substituted humanized FA19-1 antibody (FA19RHA and serine-substituted light chain) (antibody, V domains shown)
VH: QVQLVQSGAEVKKPGASVKVSCKASGYTFTTYIMHWVRQAPGQRLEWIGYINPYNDGTKYNEKFKGRVTVTRDTSANTAYMELSSLKSEDTAVYYCARGANYYGSNYNWSFDVWGQGTLVTVSS
VL: DIQMTQSPSSLSASVGDRVTITCRASQDINKYIAWYQQKPGKAPKLLIYHTSTLQPGVPSRFSGSGSGTDFTLTISSLQPEDFATYYCLQYDYLWTFGGGTKVEIK
notes: it is the cysteine of the CDR2 motif HTCTLQP; also called serine-substituted humanized antibody; serine-substituted antibody

- binding result [2]: no binding
- binding result [3]: no binding
B2: 6AA-17-2 (antibody, V domains shown)
VH: EVQLQQSGAELVRPGALVKLSCKASGFNIKDYYMHWVKQRPEQGLEWIGWIDPENDNTIYDPKFQGKASITADTSSNTAYLHLSSLTSEDTAVYYCARAYGYDDYYAMEYWGQGTSVTVSS
VL: NIMMTQSPSSLAVSAGEKVTMSCKSSQSVLYSSNQKNYLAWYQQKPGQSPKLLIYWTSTRESGVPDRFTGSGSGTDFTLTISSVQAEDLAIYYCHQYLYSYTFGGGTKL
notes: Mouse monoclonal raised against the partial protein containing the FA58C domain; also called Antibody 3

- binding result [4]: binds
- binding result [5]: binds
- binding result [6]: binds
B3: FA17-9 (antibody, V domains shown)
VH: EVQLQQSGPELVKPGASVKMSCKASGYTFTTYVMHWVKQKPGQGLEWIGYINPYNDGTKYNEKFKGKATLTSDKSSSTAYMELSSLTSEDSAVYYCARGANYYGSSYNWSFDVWGAGTTVTVSS
VL: DIQMTQSPSSLSASLGGKVTITCKASQDINKYIAWYQHKPGEGPRLLIHYTSTLQPGIPSRFSGSGSGRDYSFSISNLEPEDIATYYCLQYDYLWTFGGGTKL
notes: Mouse monoclonal; also called antibody No. FA17-9; Antibody 1

- binding result [7]: binds
B4: chimeric FA17-9 antibody (antibody, V domains shown)
VH: B3 VH
VL: B3 VL
notes: Variable regions of FA17-9 joined to constant regions derived from human IgG1 (LONZA vector)

- binding result [2]: no binding
- binding result [8]: no binding
- binding result [9]: no binding
- binding result [3]: no binding
B5: FA19-1 (antibody, V domains shown)
VH: B3 VH with V33I, K67E, S106N
VL: B3 VL with K24R, E42K, Y50H, S52C
notes: Mouse monoclonal; also called antibody No. FA19-1; Antibody 2

B6: chimeric FA19-1 antibody (antibody, V domains shown)
VH: B3 VH with V33I, K67E, S106N
VL: B3 VL with K24R, E42K, Y50H, S52C
- ADCC, % cytotoxicity (lactate dehydrogenase release), A549 targets, antibody 10 ug/ml, E/T ratio 50, five donors [10]: 47.1%
- ADCC, % cytotoxicity (lactate dehydrogenase release), NCI-H460-LNM35 targets, antibody 10 ug/ml, E/T ratio 50 [10]: 32.4%
